Test results reported in publication doi:10.1101/2022.01.21.477187 (bioRxiv, 2022).

Experiments:
[1] = target: the molecule itself; assay: single-molecule photobleaching steps and initial intensity (TIRF); 0.5 nM fluorescent motor adsorbed non-specifically on silanised coverslips, BRB80 with oxygen scavengers; bleaching steps counted by hand; K560-2mNG as intensity reference
[2] = target: the molecule itself; assay: native gel or EMSA; native PAGE of purified CENP-E483; species at ~100 kDa and ~230 kDa

B1: truncated human CENP-E754 containing five predicted coiled-coils of the native stalk (domain or fragment, UniProt Q02224 1-754, looked up)
chain: MAEEGAVAVCVRVRPLNSREESLGETAQVYWKTDNNVIYQVDGSKSFNFDRVFHGNETTKNVYEEIAAPIIDSAIQGYNGTIFAYGQTASGKTYTMMGSEDHLGVIPRAIHDIFQKIKKFPDREFLLRVSYMEIYNETITDLLCGTQKMKPLIIREDVNRNVYVADLTEEVVYTSEMALKWITKGEKSRHYGETKMNQRSSRSHTIFRMILESREKGEPSNCEGSVKVSHLNLVDLAGSERAAQTGAAGVRLKEGCNINRSLFILGQVIKKLSDGQVGGFINYRDSKLTRILQNSLGGNAKTRIICTITPVSFDETLTALQFASTAKYMKNTPYVNEVSTDEALLKRYRKEIMDLKKQLEEVSLETRAQAMEKDQLAQLLEEKDLLQKVQNEKIENLTRMLVTSSSLTLQQELKAKRKRRVTWCLGKINKMKNSNYADQFNIPTNITTKTHKLSINLLREIDESVCSESDVFSNTLDTLSEIEWNPATKLLNQENIESELNSLRADYDNLVLDYEQLRTEKEEMELKLKEKNDLDEFEALERKTKKDQEMQLIHEISNLKNLVKHAEVYNQDLENELSSKVELLREKEDQIKKLQEYIDSQKLENIKMDLSYSLESIEDPKQMKQTLFDAETVALDAKRESAFLRSENLELKEKMKELATTYKQMENDIQLYQSQLEAKKKMQVDLEKELQSAFNEITKLTSLIDGKVPKDLLCNLELEGKITDLQKELNKEVEENEALREEVILLSELKSLPS
notes: CENP-E, human, N-terminal truncation with the motor domain and five predicted coiled-coils; source: Sf9 cells (baculovirus), purified (HisTrap HP, Superose 6 Increase); not shown: 2x tandem mNeonGreen, C-terminal, kept
[1]
  binding result: binds

B2: human CENP-E483 followed by two tandem mNeonGreen fluorophores (domain or fragment, UniProt Q02224 1-483, looked up)
chain: MAEEGAVAVCVRVRPLNSREESLGETAQVYWKTDNNVIYQVDGSKSFNFDRVFHGNETTKNVYEEIAAPIIDSAIQGYNGTIFAYGQTASGKTYTMMGSEDHLGVIPRAIHDIFQKIKKFPDREFLLRVSYMEIYNETITDLLCGTQKMKPLIIREDVNRNVYVADLTEEVVYTSEMALKWITKGEKSRHYGETKMNQRSSRSHTIFRMILESREKGEPSNCEGSVKVSHLNLVDLAGSERAAQTGAAGVRLKEGCNINRSLFILGQVIKKLSDGQVGGFINYRDSKLTRILQNSLGGNAKTRIICTITPVSFDETLTALQFASTAKYMKNTPYVNEVSTDEALLKRYRKEIMDLKKQLEEVSLETRAQAMEKDQLAQLLEEKDLLQKVQNEKIENLTRMLVTSSSLTLQQELKAKRKRRVTWCLGKINKMKNSNYADQFNIPTNITTKTHKLSINLLREIDESVCSESDVFSNTLDTLSEIE
notes: CENP-E, human, N-terminal truncation with the motor domain and the first predicted coiled-coil (334-401); Codon-optimised synthetic gene in pFastBac1; predicted monomer mass 109 kDa with the tags; also called truncated CENP-E483; source: Sf9 cells (baculovirus), purified (HisTrap HP, Superose 6 Increase); not shown: 2x tandem mNeonGreen, C-terminal, kept
[2]
  stoichiometry N: 2
